From the supplement of paper PMC10567573

Experiment: protein stability index of a GFP-peptide fusion (GPS, HEK-293T) (PSI 1-6); higher = more stable
Settings: c terminus: native
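Note: lentivirally expressed fusion library, cells FACS-sorted into six equal-sized GFP/DsRed ratio bins, PSI computed from sequencing read fractions per bin weighted by bin number.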

B1: TRPA1 addK (peptide)
chain: EQRNSRWNTVLRAVKAKTHHLEPK
protein stability index (parent: NP_015628.1): 5.03

B2: POLD2 addK (peptide)
chain: CQPISFSGFGAEDDDLGGLGLGPK
protein stability index (parent: NP_006221.1): 4.81

B3: SNF8 addK (peptide)
chain: LPALFTDLYSQEITAEEAREALPK
protein stability index (parent: NP_009172.2): 5.17

B4: PSMB5 addK (peptide)
chain: DGWIRVSSDNVADLHEKYSGSTPK
protein stability index (parent: NP_002788.1): 4.81

B5: BEX2 addK (peptide)
chain: HSLRAVSTDPPHHDHHDEFCLMPK
protein stability index (parent: NP_116010.1): 4.67
